The Human Domainome abundance scans (Beltran et al. 2025)
± gives the uncertainty stated by the source.

B1: Transcription elongation regulator 1-like protein, residues 448 to 504; numbered along this chain, Q5VWI1 (parent)
chain: LPLEERVTHFRDMLLERGVSAFSTWEKELHKIVFDPRYLLLNSEERKQIFEQFVKTR

Variants of: B1
Experiment: abundance fitness (aPCA) (normalised: wild type 0, dead -1); higher = more abundant; growth selection in yeast, the domain comes from the species named
Conditions: Homo sapiens

| Variant | abundance fitness |
| --- | --- |
| LCLEERVTHFRDMLLERGVSAFSTWEKELHKIVFDPRYLLLNSEERKQIFEQFVKTR [P2C] | 0.766 ± 0.23 |
| LPLEERVTHFRDMLLERGVSAFSTWEKELHKDVFDPRYLLLNSEERKQIFEQFVKTR [I32D] | -0.852 ± 0.2 |
| LPLEERVTHFRDMLLERGVSAFSTWEKELHKIVADPRYLLLNSEERKQIFEQFVKTR [F34A] | 0.029 ± 0.21 |
| LPLEERVTHFRDMLLERGVSAFSTWEKELHKIVFDPRYLLLNNEERKQIFEQFVKTR [S43N] | -0.367 ± 0.45 |
| LPLEERVTHFRDMLLERGVSAFSTWEKELHKIVFDPRYLLLNSMERKQIFEQFVKTR [E44M] | 0.253 ± 0.24 |
| LPLEERVTHFRDMLLERGVSRFSTWEKELHKIVFDPRYLLLNSEERKQIFEQFVKTR [A21R] | -0.364 ± 0.19 |
| LPLEERVTHFTDMLLERGVSAFSTWEKELHKIVFDPRYLLLNSEERKQIFEQFVKTR [R11T] | -0.15 ± 0.32 |
| LPLEERVTHFRDMLLERGVSAQSTWEKELHKIVFDPRYLLLNSEERKQIFEQFVKTR [F22Q] | 0.199 ± 0.1 |
| LPLEERVTHFRDMLLERGVSAFSTWEKELHKIVFDPRYLLLNSEERKQIFEQCVKTR [F53C] | -0.828 ± 0.26 |
| LPLEERVTHFRDMLLERGVSAFSTWEKELHKIVFDPRYLLLNSHERKQIFEQFVKTR [E44H] | -0.415 ± 0.28 |
| LPLEERVTHFRDMLLERGVSAFSSWEKELHKIVFDPRYLLLNSEERKQIFEQFVKTR [T24S] | -0.237 ± 0.082 |
| LPLEERVTHFRDMLLERGVLAFSTWEKELHKIVFDPRYLLLNSEERKQIFEQFVKTR [S20L] | -0.594 ± 0.22 |
| LPLEERVTHFRDMLLERGVSAFSTWEKELRKIVFDPRYLLLNSEERKQIFEQFVKTR [H30R] | -0.295 ± 0.16 |
| LPLEERVTHFRDMLLERGVSAFSTWEKELHKIVFDPRYLLLNSEERKQIFDQFVKTR [E51D] | -0.04 ± 0.097 |
| LPLEARVTHFRDMLLERGVSAFSTWEKELHKIVFDPRYLLLNSEERKQIFEQFVKTR [E5A] | -0.73 ± 0.24 |
| LPLEERVTHFRDMLLERGVSAFSTWEKECHKIVFDPRYLLLNSEERKQIFEQFVKTR [L29C] | -0.373 ± 0.42 |
| LPLEERVTHFRDMLLERGTSAFSTWEKELHKIVFDPRYLLLNSEERKQIFEQFVKTR [V19T] | -0.674 ± 0.25 |
| LPLEERVTHFRDMLLERGVSAFSTWEKERHKIVFDPRYLLLNSEERKQIFEQFVKTR [L29R] | 0.095 ± 0.13 |
| LPLEERVTHFRDMLLERGVSAFSTWEKELHKIVFDPRYLLLNSEERKKIFEQFVKTR [Q48K] | -0.31 ± 0.48 |
| LPLEEQVTHFRDMLLERGVSAFSTWEKELHKIVFDPRYLLLNSEERKQIFEQFVKTR [R6Q] | -0.744 ± 0.29 |
| LPLEERVTHFRDMLLERGVSAFSTWEKELHKIVFDPRYLLLNSEERKQITEQFVKTR [F50T] | -0.924 ± 0.4 |
| LRLEERVTHFRDMLLERGVSAFSTWEKELHKIVFDPRYLLLNSEERKQIFEQFVKTR [P2R] | 0.776 ± 0.092 |
| LPLEERVTHFRDLLLERGVSAFSTWEKELHKIVFDPRYLLLNSEERKQIFEQFVKTR [M13L] | -0.415 ± 0.12 |

| Variant | abundance fitness |
| --- | --- |
| LPLEERVTHFRDMLLERGVSAFSTWEKELHKIVFDPRYLLNNSEERKQIFEQFVKTR [L41N] | -0.755 ± 0.098 |
| LPLEERVTHFRDMLLERGVSAFSTWEKELHKIVFDPRYLPLNSEERKQIFEQFVKTR [L40P] | -0.688 ± 0.32 |
| LPLEERVTHFRDMLLERGVSAFSTWEKELHKIKFDPRYLLLNSEERKQIFEQFVKTR [V33K] | 0.062 ± 0.17 |
| LPLEERVTHFRDMLLERGVSAFSTQEKELHKIVFDPRYLLLNSEERKQIFEQFVKTR [W25Q] | -0.751 ± 0.47 |
| LPLEERVTHFRDMLLERGVSAFSTWEKELHKIVFDPRYLLLNSEERKQIFVQFVKTR [E51V] | -0.669 ± 0.16 |
| LPLEERVTHFRDMLLEAGVSAFSTWEKELHKIVFDPRYLLLNSEERKQIFEQFVKTR [R17A] | -0.465 ± 0.39 |
| LPLEERVTHFRDMLLERGVCAFSTWEKELHKIVFDPRYLLLNSEERKQIFEQFVKTR [S20C] | -0.169 ± 0.25 |
| LPEEERVTHFRDMLLERGVSAFSTWEKELHKIVFDPRYLLLNSEERKQIFEQFVKTR [L3E] | 0.132 ± 0.2 |
| LPLEERVTHFRDMLLERGVSAFSTWEKELHKIVFDPRYLLLNSEERCQIFEQFVKTR [K47C] | -0.165 ± 0.26 |
| LPLEERVTHFRDMLLERGVSAFSTWEKELHKIVFTPRYLLLNSEERKQIFEQFVKTR [D35T] | -0.892 ± 0.19 |
| LPLEERVTHFRRMLLERGVSAFSTWEKELHKIVFDPRYLLLNSEERKQIFEQFVKTR [D12R] | -0.283 ± 0.14 |
| LPLEERVTHFRDMLLERGVSAFSTWEKELHKIVFDPRYLLLNSEERKQIFNQFVKTR [E51N] | -0.147 ± 0.079 |
| LPLEERVTHFRGMLLERGVSAFSTWEKELHKIVFDPRYLLLNSEERKQIFEQFVKTR [D12G] | -0.381 ± 0.19 |
| LPLEERVTHFRDMLLERGVSAFSTWEKELHKIVFDPRYLLLNSEECKQIFEQFVKTR [R46C] | -0.657 ± 0.34 |
| LPLEERVTHFRDMLLERGVSAFSTWEKELHKIVFDPRYLLLNSEERTQIFEQFVKTR [K47T] | -0.73 ± 0.45 |
| LPLEERVTHFRDMLLERGVSVFSTWEKELHKIVFDPRYLLLNSEERKQIFEQFVKTR [A21V] | -0.22 ± 0.15 |
| LPLEERVPHFRDMLLERGVSAFSTWEKELHKIVFDPRYLLLNSEERKQIFEQFVKTR [T8P] | -0.013 ± 0.37 |
| LPLEERVTHFRDMLLERGVSAFSTWEKELHKIIFDPRYLLLNSEERKQIFEQFVKTR [V33I] | 0.129 ± 0.33 |
| LPLEERVTHFRDMLLERGVSAFSTWEKELHKIVFDPRYLLLNSEERKQPFEQFVKTR [I49P] | -0.886 ± 0.17 |
| LPLEERVTHFRDMLLERGVSAFSTWEKELHKIVFDPRYLLLNSEERKQIFEQFCKTR [V54C] | -0.303 ± 0.27 |
| LPLEERVTHFRDMLLERGVSAFSTWEKELHKIVFDTRYLLLNSEERKQIFEQFVKTR [P36T] | -0.604 ± 0.17 |
| LPLEERVTHFRDMLLERGVSAFSTWEWELHKIVFDPRYLLLNSEERKQIFEQFVKTR [K27W] | -0.799 ± 0.37 |
| LPLEERVTHFRDMLLERKVSAFSTWEKELHKIVFDPRYLLLNSEERKQIFEQFVKTR [G18K] | 0.719 ± 0.15 |
